Common to all, as to experiment: AUC
The target of assay [1] is Mouse E-cadherin EC1-2 E11D (mouse).
Assay [2] deals with Mouse E-cadherin EC1-2 P5A (mouse).
For assay [3], the target named is Mouse E-cadherin EC1-2 P5A P6A (mouse).
Assay [4] concerns the target Mouse E-cadherin EC1-2 P5G P6G (mouse).
For assay [5], the target named is Mouse E-cadherin EC1-2 P5S P6S (mouse).
The target in assay [6] is Mouse E-cadherin EC1-2 P6A (mouse).
In assay [7] the target is Mouse E-cadherin EC1-2 W2F (mouse).
The target in assay [8] is Mouse E-cadherin EC1-2 wild-type (mouse).
Assay [9] deals with Mouse E-cadherin EC1-2 with one alanine inserted between residues 2 and 3 (mouse).
In assay [10] the target is Mouse E-cadherin EC1-2 with two alanines inserted between residues 2 and 3 (mouse).
Assay [11] has as its target Mouse E-cadherin EC2-3 F108W del-TQE (mouse).
Assay [12] has as its target Mouse N-cadherin EC1-2 P5A P6A (mouse).
The target of assay [13] is Mouse N-cadherin EC1-2 wild type (mouse).
Assay [14] concerns the target Mouse cadherin-11 EC1-2 F8A (mouse).
Assay [15] has as its target Mouse cadherin-11 EC1-2 wild type (mouse).

Turning to “Mouse E-cadherin EC1-2 E11D (domain or fragment)”, the Kd (in general, the constant that tells how readily two partners part at equilibrium) in assay [1] turned out to be 71.2 µM.
For “Mouse E-cadherin EC1-2 P5A (domain or fragment)”, in assay [2], the Kd was determined as 2.9 µM.
For “Mouse E-cadherin EC1-2 P5A P6A (domain or fragment)”, the Kd in assay [3] stood at 3.7 µM.
On to “Mouse E-cadherin EC1-2 P5G P6G (domain or fragment)”, for which, in [4], the equilibrium dissociation constant (Kd) turned out to be 2.7 µM.
With “Mouse E-cadherin EC1-2 P5S P6S (domain or fragment)”, in assay [5], the Kd is 2.9 µM.
On to “Mouse E-cadherin EC1-2 P6A (domain or fragment)”, for which the dissociation constant Kd in assay [6] came to 4.8 µM.
In [7], “Mouse E-cadherin EC1-2 W2F (domain or fragment)” returned a Kd of 246 µM.
Substance “Mouse E-cadherin EC1-2 wild-type (domain or fragment)” registered an equilibrium dissociation constant (Kd) in [8] of 96.5 µM.
For “Mouse E-cadherin EC1-2 with one alanine inserted between residues 2 and 3 (domain or fragment)”, the Kd in [9] was found to be 1520 µM.
For the substance “Mouse E-cadherin EC1-2 with two alanines inserted between residues 2 and 3 (domain or fragment)”, the Kd in [10] was determined as 195 µM.
In assay [11], “Mouse E-cadherin EC2-3 F108W del-TQE (domain or fragment)” returned an equilibrium dissociation constant (Kd) of 46.5 µM.
“Mouse N-cadherin EC1-2 P5A P6A (domain or fragment)”: the Kd in assay [12] came out at 3.6 µM.
“Mouse N-cadherin EC1-2 wild type (domain or fragment)”: the dissociation constant Kd in assay [13] is 25.8 µM.
The substance “Mouse cadherin-11 EC1-2 F8A (domain or fragment)” came in with a Kd in assay [14] of 3.7 µM.
The substance “Mouse cadherin-11 EC1-2 wild type (domain or fragment)” displayed a dissociation constant Kd in assay [15] of 25.2 µM.
